Data: article PMC11499256, “Two-factor authentication underpins the precision of the piRNA pathway” (Nature, 2024)

Assays:
[1] = biological target: T1, His-tagged SPIN1 (49–262) (mouse, UniProt Q61142 49-262); assay: SEC; SPIN1–SPOCD1 fragment 1b complex purified on an S200 increase column before the nucleosome pull-down; details: both partners purified
T1 construct: mouse SPIN1 (Q61142), amino acids 49–262; 'Purified as above' would include cleavage of the tag, yet the protein is called His-tagged and detected by anti-His; source: E. coli BL21 (DE3), purified

[2] = biological target: T2, mouse SPIN1 (amino acids 49–262), recombinant, His tag cleaved (mouse, UniProt Q61142 49-262); assay: pull-down; co-precipitation of recombinant proteins, Coomassie gel, n = 3; details: both partners purified
T2 construct: mouse SPIN1 (Q61142), amino acids 49–262; The SPIN1 construct was cleaved with GST–3C protease overnight; also called recombinant SPIN1; source: E. coli BL21 (DE3), purified (His-tag column, 3C cleavage, ion exchange, SEC)
T2 sequence (Q61142 49-262): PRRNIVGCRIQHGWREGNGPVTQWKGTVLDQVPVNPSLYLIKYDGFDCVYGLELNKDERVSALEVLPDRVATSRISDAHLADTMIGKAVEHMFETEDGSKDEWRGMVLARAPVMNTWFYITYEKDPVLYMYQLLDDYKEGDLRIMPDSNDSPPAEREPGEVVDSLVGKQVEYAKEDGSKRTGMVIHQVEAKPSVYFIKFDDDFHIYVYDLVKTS

T1 sequence (Q61142 49-262): as above

| Binder | binding result [1] | binding result [2] |
| --- | --- | --- |
| His-tagged SPOCD1 fragment 1b (domain or fragment, mouse, UniProt B1ASB6 203-409, looked up, source: E. coli BL21 (DE3), purified) VTQEPLQSPALYPEVLTEDSTDQQEVQPAFVVGSPGTPPDPVGPEDKAQSGSRMELEQGLSAPANSCASSPEPLGGLDGAPLEQRRPTHVKKRPWTSPDDSSQDHAEGASKKDFPRLEARVPRGVKTVYYVYTGSGIRLVGAASSSQPGQIEPLEELDTNSARRKRRPTTAHPTPCQSDPSETENAEPHQQRAEDPGEQGMTPLDAG | binds | – |
| mouse GST–SPOCD1-F1b (amino acids 203–409), recombinant (domain or fragment, UniProt B1ASB6 203-409, looked up, pET-based backbone; also called GST–F1b; SPOCD1 fragment 1b; source: E. coli BL21 (DE3), purified (glutathione sepharose, dialysis)) VTQEPLQSPALYPEVLTEDSTDQQEVQPAFVVGSPGTPPDPVGPEDKAQSGSRMELEQGLSAPANSCASSPEPLGGLDGAPLEQRRPTHVKKRPWTSPDDSSQDHAEGASKKDFPRLEARVPRGVKTVYYVYTGSGIRLVGAASSSQPGQIEPLEELDTNSARRKRRPTTAHPTPCQSDPSETENAEPHQQRAEDPGEQGMTPLDAG | – | binds |
